Measured values reported in PMC3858845 (Molecular bioSystems, 2014).

Columns and labels:
[1] = biological target: nvIYD (Nematostella vectensis, UniProt A7S5D9); experiment: FMN occupancy of purified enzyme from A450 and A280; assay type: binding; settings: FMN bound as isolated
[2] = biological target: dpIYD (Daphnia pulex, UniProt E9FR69); experiment: as above; assay type: binding; settings: FMN bound as isolated
[3] = biological target: amIYD (Apis mellifera, UniProt A0A7M7RAX7); experiment: as above; assay type: binding; settings: FMN bound as isolated
[4] = biological target: bfIYD (Branchiostoma floridae, UniProt C3Y0Q6); experiment: as above; assay type: binding; settings: FMN bound as isolated
[5] = biological target: hhIYD (Haliscomenobacter hydrossis, UniProt F4KU78); experiment: as above; assay type: binding; settings: FMN bound as isolated
[6] = biological target: T1, drIYD (Danio rerio, UniProt E7FDV5); experiment: as above; assay type: binding; settings: FMN bound as isolated
T1 sequence (E7FDV5 24-295 limits assumed): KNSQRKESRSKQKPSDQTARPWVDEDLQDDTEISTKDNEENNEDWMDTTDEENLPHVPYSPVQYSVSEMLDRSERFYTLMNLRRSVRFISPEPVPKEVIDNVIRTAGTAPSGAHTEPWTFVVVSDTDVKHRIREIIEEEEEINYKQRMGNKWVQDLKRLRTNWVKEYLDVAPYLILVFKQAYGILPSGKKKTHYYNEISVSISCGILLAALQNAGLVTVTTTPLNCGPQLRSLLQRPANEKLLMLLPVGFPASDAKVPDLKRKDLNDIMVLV

[7] = biological target: hmIYD (Hydra vulgaris, UniProt T2MBC4); experiment: as above; assay type: binding; settings: FMN bound as isolated; partly purified enzyme
Sequence of hmIYD (T2MBC4 43-272): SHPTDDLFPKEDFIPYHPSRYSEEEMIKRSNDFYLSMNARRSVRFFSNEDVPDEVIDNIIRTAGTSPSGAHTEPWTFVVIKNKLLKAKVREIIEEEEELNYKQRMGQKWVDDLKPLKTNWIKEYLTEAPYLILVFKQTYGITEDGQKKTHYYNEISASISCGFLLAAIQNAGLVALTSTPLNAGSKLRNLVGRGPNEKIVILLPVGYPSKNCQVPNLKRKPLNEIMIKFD

[8] = substrate: N[C@@H](Cc1cc(I)c(O)c(I)c1)C(=O)O; experiment: purified protein; assay type: biochemical, Haliscomenobacter hydrossis; settings: labelled compound; excess FMN present in assay
[9] = substrate: N[C@@H](Cc1cc(I)c(O)c(I)c1)C(=O)O; experiment: purified protein; assay type: biochemical, Danio rerio; settings: labelled compound; excess FMN present in assay
[10] = substrate: N[C@@H](Cc1cc(I)c(O)c(I)c1)C(=O)O; experiment: purified protein; assay type: biochemical, Nematostella vectensis; settings: labelled compound; excess FMN present in assay
[11] = substrate: N[C@@H](Cc1cc(I)c(O)c(I)c1)C(=O)O; experiment: purified protein; assay type: biochemical, Daphnia pulex; settings: labelled compound; excess FMN present in assay

Work on `Cc1cc2nc3c(=O)[nH]c(=O)nc-3n(C[C@H](O)[C@H](O)[C@H](O)COP(=O)(O)O)c2cc1C` [FMN] yielded an FMN occupancy [1] of 55%, an FMN occupancy [2] of 95% and an FMN occupancy [3] of 95%. For the same molecule, the FMN occupancy [4] was 95%, the FMN occupancy [5] was 95% and the FMN occupancy [6] was 95%. It also gave an FMN occupancy [7] of 59%.

B1: hhIYD (Haliscomenobacter hydrossis DSM 1100) (protein)
chain: MKQKPAFIPYAGAQFEPEEMLSKSAEYYQFMDHRRTVREFSNRAIPLEVIENIVMTASTAPSGAHKQPWTFVVVSDPQIKAKIRQAAEKEEFESYNGRMSNEWLEDLQPFGTDWHKPFLEIAPYLIVVFRKAYDVLPDGTQRKNYYVQESVGIACGFLLAAIHQAGLVALTHTPSPMNFLQKILQRPENERPFLLVPVGYPAEGAMVPDLQRKDKAAVMVVY
For B1, the Km [8] was 6.6 ± 0.9 µM, the kcat [8] was 0.09 ± 0.005 s⁻¹ and the kcat/Km [8] was 13300 ± 1670 M⁻¹ s⁻¹.

B2: drIYD (Danio rerio) (protein)
chain: KNSQRKESRSKQKPSDQTARPWVDEDLQDDTEISTKDNEENNEDWMDTTDEENLPHVPYSPVQYSVSEMLDRSERFYTLMNLRRSVRFISPEPVPKEVIDNVIRTAGTAPSGAHTEPWTFVVVSDTDVKHRIREIIEEEEEINYKQRMGNKWVQDLKRLRTNWVKEYLDVAPYLILVFKQAYGILPSGKKKTHYYNEISVSISCGILLAALQNAGLVTVTTTPLNCGPQLRSLLQRPANEKLLMLLPVGFPASDAKVPDLKRKDLNDIMVLV
With B2 the Km [9] was 8 ± 1 µM, the kcat [9] was 0.0683 ± 0.00333 s⁻¹ and the kcat/Km [9] was 8500 ± 1170 M⁻¹ s⁻¹.

B3: nvIYD (Nematostella vectensis) (protein)
chain: MEVFKALFKSKEAYTVDVDPMKDSDEHDLPRDPLSIRVTGEEEVNHIPYPYFDEIPTEEEMKKKSAEFYKSMKKRRTVRKISSEPVPLEVIENIVRVAGTSPSGAHTEPWTYVVIRDPDLKKQIKEVVEEEEQLNYARRMGEKWVQDLSILKTTWSKPYIETAPYLILIFKQVYGIKPDGDKKVHYYNEISVCISCGLLLAAIQNAGLVTVTSTPMNAGPRLRVLLNRPQNEKLIMLLPVGYPAKDAEVPNLTRKPLEEIMVLK
In the case of B3, the Km [10] is reported as 105 ± 26 µM, the kcat [10] is reported as 0.533 ± 0.0667 s⁻¹ and the kcat/Km [10] is reported as 5000 ± 1330 M⁻¹ s⁻¹.

B4: dpIYD (Daphnia pulex) (protein)
chain: VKRESAIEQINEIEDDDEQSLEDQDVLPILFQYEKPSEADSIRRSEEFYRRMNQRRSVREISSDPVALEVIENIIKTGGTSPSGAHTEPWTFVVVSNLEMKQQIRQIIEAEEEINYKQRMGDVWVQDLQPVGTTWVKEYLTEAPWLILIFKQVHGFKRNGQKKIHYYNEISVSIATGFLLAAIQEAGLVTVTTTPLNCGPSIRVLLGRPVNEKLLLLLPVGYPKVGATVPDFKRKPLHDIMVHYQ
Work on B4 yielded a Km [11] of 7 ± 1 µM, a kcat [11] of 0.293 ± 0.0133 s⁻¹ and a kcat/Km [11] of 41700 ± 6670 M⁻¹ s⁻¹.
